In US20070166710A1, “Methods for inhibiting adipogenesis and for treating type 2 diabetes” (priority 2003, published 2007):
Substitutions are numbered along the chain they refer to. Blank lines part the entries; values can stand above or below the binder they belong to.

Columns and labels:
[1] = target: T1, HA-Akt (human Akt1 fused to an N-terminal HA-tag, expressed from pCMV-HA-Akt) (human, UniProt P31749 1-480); test: co-immunoprecipitation from transfected HEK/293 cells (anti-HA IP, Western blot for Foxa-2; the reverse anti-Foxa-2 IP also coprecipitated Akt)
T1 construct: Expressed in transfected HEK/293 or HepG2 cells; The methods also mention Akt2 for HEK/293 transfections, but pCMV-HA-Akt is defined as HA-Akt1; also called HA-Akt1; pCMV-HA-Akt-1; not shown: N-terminal HA-tag

[2] = target: T1, HA-Akt (human Akt1 fused to an …); test: co-immunoprecipitation from transfected HEK/293 cells (anti-HA IP; the reverse anti-Foxa-2 IP gave the same result)

T1 sequence (P31749 whole entry, the tested form may be a part): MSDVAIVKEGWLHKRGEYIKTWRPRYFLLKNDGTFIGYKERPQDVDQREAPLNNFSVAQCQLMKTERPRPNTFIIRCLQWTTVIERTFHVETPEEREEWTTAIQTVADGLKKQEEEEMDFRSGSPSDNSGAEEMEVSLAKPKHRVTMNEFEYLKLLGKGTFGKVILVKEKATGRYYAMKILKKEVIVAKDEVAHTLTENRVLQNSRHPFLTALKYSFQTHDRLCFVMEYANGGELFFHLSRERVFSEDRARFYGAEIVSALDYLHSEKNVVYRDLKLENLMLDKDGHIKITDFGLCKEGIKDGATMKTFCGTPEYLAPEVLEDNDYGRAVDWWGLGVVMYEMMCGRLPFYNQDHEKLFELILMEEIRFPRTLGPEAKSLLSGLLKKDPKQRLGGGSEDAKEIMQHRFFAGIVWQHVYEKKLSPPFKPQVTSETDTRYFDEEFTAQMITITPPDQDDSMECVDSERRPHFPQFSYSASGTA

binding result [1]: binds
B1: Foxa-2T156A (other, rat, UniProt P32182 1-458, looked up)
chain: MLGAVKMEGHEPSDWSSYYAEPEGYSSVSNMNASLGMNGMNTYMSMSAAAMGSGSGNMSAGSMNMSSYVGAGMSPSLAGMSPGAGAMAGMSGSAGAAGVAGMGPHLSPSLSPLGGQAAGAMGGLAPYANMNSMSPMYGQAGLSRARDPKTYRRSYAHAKPPYSYISLITMAIQQSPNKMLTLSEIYQWIMDLFPFYRQNQQRWQNSIRHSLSFNDFLKVPRAPDKPGKGSFWTLHPDSGNMFENGCYLRRQKRFKCENELALKEAAGAGSGGGKKTAPGTQASQVQLGEAAGSASETPAGTESPHSSASPCQEHKRGGLSELKGTPASALSPPEPAPSPGQQQQAAAHLLGPPHHPGLPPEAHLKPEHHYAFNHPFSINNLMSSEQQHHHSHHHHQPHKMDLKTYEQVMHYPGGYGSPMPGSLAMGPVTNKAGLDASPLAADTSYYQGVYSRPIMNSS
notes: Phosphorylation-deficient mutant; also called TI56A; Foxa-2TI56A

binding result [2]: no binding
B2: Foxa-2R153K (other, rat, UniProt P32182 1-458, looked up)
chain: B1 chain with R153K, A156T
